For assay [1], the system named is CRE. Briefly: Transcriptional reporter, bulk transfection, CRE in NIH3T3 cells. The class given is cell-based. As to conditions: NIH3T3, 10 nM FSK, 4 h. Here is the method:
(§1) The transcriptional reporter containing HRE and 9B8 opt-P was used in the bulk transfection of HeLa cells
(§2) HEK293, NIH3T3, or HeLa cells were plated to a single well of a 6-well tissue culture plate the day before transfection at a density of 4.5×10^5 cells/well in 3 mL complete medium (DMEM+10% FBS+1×NEAA+1× sodium pyruvate) for HEK293 cells, 3×10^5 cells/well in 3 mL complete medium (DMEM+10% fetal calf serum (FCS)+1×NEAA+1× sodium pyruvate) for NIH3T3 cells, or 9.9×10^5 cells/well in 3 mL complete medium (DMEM+10% FBS+1×NEAA) for HeLa cells. Cells were grown overnight at 37° C.
(§3) 3,300 ng of reporter plasmid DNA in 155 μL OPTI-MEM® was mixed with 9.9 μL FUGENE® HD transfection reagent, vortexed briefly, and incubated at room temperature for 10 min. The CRE transcriptional reporters were used to transfect HEK293 and NIH3T3 cells. The HRE transcriptional reporters were used to transfect HeLa cells. The reporter mixture was added to cells and mixed by gentle rocking followed by incubation at 37° C. for 6 hrs (HEK293 and NIH3T3) or 3 hrs (HeLa). […]
(§4) FSK (CRE stimulator) or 17-AAG (HRE stimulator; 17-Allylamino-demethoxy geldanamycin) in OPTI-MEM® was added to the cells (10 nM or 10 μM final concentration for FSK; 1 nM or 1 μM final concentration for 17-AAG) and incubated at 37° C. for 4 hrs (FSK) or 6 hrs (17-AAG). […] Luminescence was measured on a GLOMAX® Luminometer.

Assay [2] deals with cAMP response element (CRE). Kind of assay: Transcriptional reporter, forward transfection, CRE in HEK293 cells. In kind it is cell-based, human. The settings on record: 3 h; for baseline: 10 nM FSK. How it is done: HEK293 cells were plated at 15,000 cells/well in six 96-well tissue culture plates. Cells were grown in 100 μL of DMEM+10% FBS+1× non-essential amino acids (NEAA) and incubated overnight at 37° C. The cells were transiently transfected with either 10 ng or 100 ng plasmid DNA/well of pGL4.29 9B8 opt, pGL4.29 9B8 opt-P, or pGL4.29. Plasmid DNA was mixed with 850 μL of OPTI-MEMO (Invitrogen) and 32.4 μL of FUGENE® HD transfection reagent (Promega Corp.) and incubated at room temperature for 10 min. Eight μL of the transfection/reporter DNA mixture was added to the appropriate wells (2 constructs/plate). Cells were incubated for 4 hrs at 37° C. The medium was replaced with OPTI-MEM®+0.5% dialyzed FBS+1×NEAA+1× sodium pyruvate+1× Penn-Strep and incubated overnight at 37° C.
A lytic reagent containing 100 mM MES pH 6.1, 1 mM CDTA, 150 mM KCl, 35 mM thiourea, 2 mM DTT, 0.25% TERGITOLO NP-9 (v/v), 0.025% MAZUO DF 204, and 20 μM PBI-3939 was added to the cells containing pGL4.29 9B8 opt or pGL4.29 9B8 opt-P and allowed to incubated for 10 min at room temperature (100 μL lytic reagent added to 100 μL cells). ONE-GLO™ assay reagent (Promega Corp.) was added to cells containing pGL4.29 and used according to the manufacturer's protocol (100 μL reagent added to 100 μL cells). Luminescence was measured on a GLOMAX® Luminometer.

Assay [3] relates to CRE. Kind of assay: Transcriptional reporter, bulk transfection, CRE in HEK293 cells. The class given is cell-based, human. The settings on record: HEK293, 10 nM FSK, 4 h. How it is done: as §1, §2, §3, §4
The subject of assay [4] is heat shock response element (HRE). Briefly: Transcriptional reporter, bulk transfection, HRE in HeLa cells. The settings on record: 6 h. The class given is cell-based. Here is the method:
as §1, §2, §3, §4

Assay [5] relates to antioxidant response element (ARE). Briefly: Transcriptional reporter, reverse transfection, ARE in HEK293 cells. The class given is cell-based, human. The settings on record: 100 ng DNA, 24 h. Here is the method:
HEK293 cells were trypsinized (T75 flask, 3 mL trypsin) and resuspended in […] (approximately 8.9×10^6 total cells) in medium containing DMEM+10% FBS+1×NEAA. Each transcriptional reporter was prepared for transfection by mixing 1.2 mL OPTI-MEM®, 12 μL transcription reporter DNA (100 ng) and 36 μL FUGENE® HD transfection reagent together and incubated at room temperature for 35 min. Following incubation, 624 μL of the transfection/reporter DNA mixture was added to 12 mL of cell suspension and mixed by inversion. After mixing, 100 μL of the cell/DNA mixture was added to wells of a 96-well plate (2 constructs/plate). The cells were incubated at 37° C. for 22 hrs. Tert-butylhydroquinone (a Nrf2 stabilizer; tBHQ; 1 μM (“baseline”) or 20 μM) or sulphoraphane, (an organosulfer antioxidant known to activate Nrf2; 1 μM (“baseline”) or 20 μM) in OPTI-MEM® was added to each well and incubated at 37° C. for 24 hrs. Cells were lysed with 100 μL lytic reagent as described above for the forward transfection. Luminescence was measured on a GLOMAX® Luminometer.

B1: 9B8 opt-P: 9B8 opt further comprising the PEST protein degradation sequence (SEQ ID NO: 65) (protein)
chain: MVFTLEDFVGDWRQTAGYNLDQVLEQGGLSSLFQKLGVSVTPIQKIVLSGENGLKIDIHVIIPYEGLSGYQMGQIEKIFKVVYPVDDHHFKVILHYGTLVIDGVTPNMIDYFGRPYEGIAVFDGKKITVTGTLWNGNKIIDERLINPDGSLLFRVTINGVTGWRLCERILANSHGFPPEVEEQAAGTLPMSCAQESGMDRHPAACASARINV
modifications: PEST degradation sequence
B1: the baseline in the assay on CRE [1] is recorded as 410,461 RLU; in assay [2] (10 ng DNA) it was 11179 RLU; in assay [2] (100 ng DNA), 122,071 RLU; in the assay on CRE [3], 3,960,000 RLU; in assay [4] it was 278,118 RLU; in assay [5] (1 μM sulphoraphane), 258,406 RLU. Moreover, the baseline in assay [5] (1 μM tBHQ) was 317,238 RLU. Moreover, the “RLU (10 µM FSK)” value is listed as 1,353,459 RLU in assay [2] (10 ng DNA) and 20,544,753 RLU in assay [2] (100 ng DNA). Also, the values for the Response in assay [2] (10 ng DNA) and in assay [2] (100 ng DNA) were 121 and 168, respectively. For the same molecule, the “RLU (20 μM sulphoraphane)” value in assay [5] is recorded as 3,940,000 RLU. In addition, the “RLU (20 μM tBHQ)” value in assay [5] is 8,460,000 RLU.

Values taken from patent publication US9951373B2, “Oplophorus-derived luciferases, novel coelenterazine substrates, and methods of use” (Promega Corporation, priority 2010, dated 2018).
